Patent publication US20090036365A1

Target: human plasmin (human) (UniProt P00747)
Assay: display phage binding to immobilised protease; this row is the reference taken as unit

Sequence of human plasmin (human) (P00747 97-810 limits assumed): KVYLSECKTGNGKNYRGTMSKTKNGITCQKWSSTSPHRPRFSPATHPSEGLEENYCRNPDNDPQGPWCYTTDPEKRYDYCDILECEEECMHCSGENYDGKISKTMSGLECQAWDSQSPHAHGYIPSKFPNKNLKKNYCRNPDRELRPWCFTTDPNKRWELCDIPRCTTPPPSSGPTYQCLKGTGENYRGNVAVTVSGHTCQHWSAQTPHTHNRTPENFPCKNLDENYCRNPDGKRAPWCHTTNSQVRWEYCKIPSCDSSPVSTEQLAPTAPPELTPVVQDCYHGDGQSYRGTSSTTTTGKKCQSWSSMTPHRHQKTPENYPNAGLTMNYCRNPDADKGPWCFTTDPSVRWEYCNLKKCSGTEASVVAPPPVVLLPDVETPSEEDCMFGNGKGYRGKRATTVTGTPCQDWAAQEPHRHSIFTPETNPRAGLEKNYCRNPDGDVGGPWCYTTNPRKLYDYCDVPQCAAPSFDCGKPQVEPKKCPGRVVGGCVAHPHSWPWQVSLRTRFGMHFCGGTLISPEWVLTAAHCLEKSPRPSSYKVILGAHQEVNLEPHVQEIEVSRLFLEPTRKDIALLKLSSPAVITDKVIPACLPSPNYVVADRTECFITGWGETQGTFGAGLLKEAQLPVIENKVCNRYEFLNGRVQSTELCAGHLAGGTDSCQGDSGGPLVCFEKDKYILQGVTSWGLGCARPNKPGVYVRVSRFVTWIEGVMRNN

LACI-K1 (first Kunitz domain of human lipoprotein-associated coagulation inhibitor) (from UniProt P10646 50-107)
relative binding (LACI-K1 phage = unit) (fold of LACI-K1 phage): 1
